Assay results taken from patent US8449872B2, “Polymer conjugates of nesiritide peptides” (priority 2008, dated 2013).
Entries after “also recorded” stand apart in the source; their conditions may differ. Read-outs that look alike come from different tables or passages of the source.

Tests used:
[1] = rat, in vivo, iv
Procedure: (§1) Thirty one (31) adult male Sprague-Dawley rats with indwelling jugular vein and carotid artery catheters (JVC/CAC) (Charles River Labs, Hollister, Calif.) were utilized for this study. […] All animals were food fasted overnight. Prior to dosing, the rats were weighed, the tails and cage cards were labeled for identification and the doses were calculated. Anesthesia was induced and maintained with 3.0-5.0% isoflurane. The JVC and CAC were externalized and flushed with HEP/saline (10 IU/mL HEP/mL saline). The predose sample was collected from the JVC and the catheters were plugged, and labeled to identify the jugular vein and carotid artery. When all of the animals had recovered from anesthesia and the predose samples were processed, the animals were dosed, intravenously (IV) via the JVC using a 1 mL syringe containing the appropriate test article and the dead volume of the catheter was flushed with 0.9% saline to ensure the animals received the correct dose.
(§2) Following a single IV dose, blood samples were collected from groups 1A, 2A, 3A and 4A, at 0 (pre-dose collected as described above), 0.03, 0.33, 2.0, 6.0, 12.0 and 72.0 hours and from Groups 1B, 2B, 3B and 4B at 0 (pre-dose collected as described above), 0.17, 1.0, 4.0, 8.0, 24.0 and 48.0 hours via the carotid artery catheter and processed as stated in the protocol. Following the last collection point, the animals were euthanized.
(§3) Concentrations in plasma that were below LLOQ were replaced with zeros prior to generating Tables and PK analysis. In the event that more than half (>50%) of the data points were below zero, mean concentration will not be shown in the figures or used in PK parameters estimation. The following PK parameters were estimated using plasma concentration-time profile of each animal:

[2] = Pharmacokinetic study after a single intravenous dose in rats (noncompartmental analysis of plasma concentrations); settings: for Cmax: test article in plasma (non-released PEG-BNP, or native BNP), equivalent protein mass 0.459 mg/kg IV
Procedure: as §1, §2, §3

[3] = non-released PEG-BNP in plasma, 0.459 mg/kg IV, Sprague Dawley rats
[4] = BNP in plasma (released from conjugate or given as native BNP), 0.459 mg/kg IV, rats

| Molecule | AUCINF [2, 3] | CL [2, 3] | MRTlast [2, 3] | T½ [2, 3] | Vss [2, 3] | Cmax ([2]; Sprague Dawley rats) | further results |
| --- | --- | --- | --- | --- | --- | --- | --- |
| ButyrALD-40K-BNP: non-releasable mono-PEG conjugate (N-terminus directed) of BNP-32 with mPEG2-Butyr-ALD 40 kDa | 41300 ng·h/mL | 0.185 mL/min/kg | 24.0 h | 26.1 h | 0.631 L/kg | 1410 ng/mL | peak plasma concentration compared with ButyrALD-10K-BNP (in words) [1]: higher; clearance compared with ButyrALD-10K-BNP (in words) ([2]; non-releasable PEG constructs, IV, rats): lower; half-life compared with ButyrALD-10K-BNP (in words) ([2]; non-releasable PEG constructs, IV, rats, pooled data): longer |
| C2-FMOC-PEG2-40K-BNP: releasable mono-PEG conjugate of BNP-32 made with mPEG2-C2-fmoc-NHS-40K; hydrolysis generates unmodified peptide |  |  |  |  |  |  | Peak concentrations of the conjugate in plasma ([1]; male, Sprague-Dawley): 1300 ng/mL; time of peak concentrations of released BNP [1]: 0.3 h; plasma conjugate concentrations remained above ([1]; 24 h): above 100 ng/mL; AUCINF [2, 4]: 162 ng·h/mL; MRTlast [2, 4]: 1.84 h; Tmax [2, 4]: 0.33 h; half-life of the conjugate in plasma ([2]; intact C2-FMOC-PEG2-40K-BNP in plasma, IV, rats): 15.0 h |
| CC[C@H](C)[C@@H]1NC(=O)[C@H](CCCNC(=N)N)NC(=O)[C@H](CC(=O)O)NC(=O)[C@H](CCSC)NC(=O)[C@H](CCCCN)NC(=O)[C@H](CCCNC(=N)N)NC(=O)CNC(=O)[C@H](Cc2ccccc2)NC(=O)[C@@H](NC(=O)CNC(=O)[C@H](CO)NC(=O)CNC(=O)[C@H](CCC(N)=O)NC(=O)[C@@H](NC(=O)[C@H](CCSC)NC(=O)[C@H](CCCCN)NC(=O)[C@@H]2CCCN2C(=O)[C@@H](N)CO)C(C)C)CSSC[C@@H](C(=O)N[C@@H](CCCCN)C(=O)N[C@H](C(=O)N[C@@H](CC(C)C)C(=O)N[C@@H](CCCN=C(N)N)C(=O)N[C@@H](CCCN=C(N)N)C(=O)N[C@@H](Cc2cnc[nH]2)C(=O)O)C(C)C)NC(=O)CNC(=O)[C@H](CC(C)C)NC(=O)CNC(=O)[C@H](CO)NC(=O)[C@H](CO)NC(=O)[C@H](CO)NC(=O)[C@H](CO)NC1=O [BNP, Nesiritide] |  |  |  |  |  |  | Cmax ([1]; 0.459 mg/kg): 0.00 ng/mL; measurable BNP in plasma (in words) ([2]; following parent BNP administration IV, rats): No measurable plasma concentrations; also recorded: No BNP was measurable |
| ButyrALD-10K-BNP: non-releasable mono-PEG conjugate (N-terminus directed) of BNP-32 with mPEG-Butyr-ALD-10K | 96.6 ng·h/mL | 79.17 mL/min/kg | 0.368 h | 0.272 h | 2.27 L/kg | 355 ng/mL |  |
